The values that follow come from the DeepSol protein solubility set.

The series is described as follows: soluble on expression in E. coli; label from the status in PepcDB or PDB records.
Consider “MSLKVKRPFDAYLDEMNKITILLPHAYGTSRTFRLQEGSNVKDLPIAHTIALPDATKYECFIEEPLDVGKYYTVRDERNEETDLQIGAVIRTAIFDEKYYYEGTDLGAVHQKEATTFKVWAPTARLAKVRIYKSDKEYTDYEMYREENGVWAHTLHGDLAGEKYTFLVCINLIWNEAVDPYAKSVTVNGKYGVVIDLEKTNVTKRGQLPPLQAMTDAILYELHIRDATIHPGSGVSKKGTYKGLMEEGTTGRNGTLTGLSHIKDLGVTHVELLPLYCFGGVDEANPSSAYNWGYNPLYYNAPTGYYATNPSDPYNRIVECKQLIETFHEHGIRVIIDVVYNHVYERELSSFEKLVPGYYFRHGENGMPSNGTGVGNDIASERKMMRKFIVESILYWLTEYNVDGFRFDLMGILDVDTINIIEKEVRNIKRDALLLGEGWDLQTPLPLEEKATLNNAKKMPHIAQFNDQFRDGIKGSTFHINKRGFAFGGYVDCNHLQYIASGSLLSMKETGLFLEPVQSINYVECHDNMTMWDKLMRSNEESEEILKKRHLLATAMVILSQGIPFLHAGQEFYRTKQGNENSYNANDEINQLDWDRKEKEIETVNYIKGLIAIRKEHGAFRLQNADLIKKHMTFLQTSPEVLAYHLEHVESFGPWKEIVVLFNSSLEAKTVQLPKEETWHVLVNEKQAKIEPISSFRGKELRLAPISTYILTIMEGHHHHHH”, for which the “soluble on expression in E. coli” value is “soluble”.

On to “MGHHHHHHSHMLIPKTMGKMSPGHVRDLHGSPSHHRPRGPGGKSGFVGWAQGLCAVCSLGTWCPVSQLLQPWLKGANIELGLWLQRVEAPSIGSFHVMLSLWVQRCQELRFGNLCLDFRIYMETPGCPGKSLLQGQSPHGEPLLGQCGREMWGRAPTQSPCWGTA”, for which the “soluble on expression in E. coli” value is reported as “not soluble”.

Turning to “PSIKSAIQGKPVNPLNVSPTRLPILTADEKEFDVKIIVTGDRNQLADLEYVDEDFSTGLTMYTEVEEDIHLSASNLELYVGLVNWICSEYGFPSLDDGAFQRLLLAGMRLTEDQH”, the “soluble on expression in E. coli” value is given as “not soluble”.

With “MFSENLKKCRKQKKLTQQNMADKLGITRPAYTAYELGSREPDYKTLINISNILDVSLDYLLKGESNEKVFQDEAKKVLNDPETFLAAKDGEVTDEILQAALEIITEQLKERRKSDK”, the “soluble on expression in E. coli” value is reported as “not soluble”.

For “MGVATMVTDKYQKCIDACNRCSQACYECFKACLNEPDVNARRTCISILFECAQMCQMSSALMSMDAQFAIDHCKLCSVICDKCAQECSMFQDPHCQKCANECRTCSNECRMMSGMLEHHHHHH”, the “soluble on expression in E. coli” value is on record as “soluble”.

Regarding “MAHHHHHHMQRNWVLLPQTVRAGDAPKSSAVRTPTRPLPYVCLKSNDGMEFVLPEVAARQSKMLAMLLDAVYSLPERGGFAEPTNARGEQHTTVHASNNIGTMPCIPLEVLSGRILELVCRYLVQRSTSDVNSTDEFALLGELNPTSSSDQDIVLGLLMASDYLDC”, the “soluble on expression in E. coli” value is “soluble”.

As to “MPLLGLLPRRAWASLLSQLLRPPCASCTGAVRCQSQVAEAVLTSQLKAHQEKPNFIIKTPKGTRDLSPQHMVVREKILDLVISCFKRHGAKGMDTPAFELKETLTEKYGEDSGLMYDLKDQGGELLSLRYDLTVPFARYLAMNKVKKMKRYHVGKVWRRESPTIVQGRYREFCQCDFDIAGQFDPMIPDAECLKIMCEILSGLQLGDFLIKVNDRRIVDGMFAVCGVPESKFRAICSSIDKLDKMAWKDVRHEMVVKKGLAPEVADRIGDYVQCHGGVSLVEQMFQDPRLSQNKQALEGLGDLKLLFEYLTLFGIADKISFDLSLARGLDYYTGVIYEAVLLQTPTQAGEEPLNVGSVAAGGRYDGLVGMFDPKGHKVPCVGLSIGVERIFYIVEQRMKTKGEKVRTTETQVFVATPQKNFLQERLKLIAELWDSGIKAEMLYKNNPKLLTQLHYCESTGIPLVVIIGEQELKEGVIKIRSVASREEVAIKRENFVAEIQKRLSES”, the “soluble on expression in E. coli” value is recorded as “soluble”.

With “MTVFVDHKIEYMSLEDDAELLKTMAHPMRLKIVNELYKHKALNVTQIIQILKLPQSTVSQHLCKMRGKVLKRNRQGLEIYYSINNPKVEGIIKLLNPIQ”, the “soluble on expression in E. coli” value is “soluble”.

On to “MAVNQDTLYVKGDRNVEVTKREVTLGDLVSMECSNRVILPHLKTMKVLKIPENGEKRYVISILKIIACIHEKYPGLEVQNLGETDLIVTYEMQKTPSK”, for which the “soluble on expression in E. coli” value is recorded as “soluble”.

In the case of “MSAPDLFVAHFREAVPYIRQMRGKTLVAGIDDRLLEGDTLNKLAADIGLLSQLGIRLVLIHGARHFLDRHAAAQGRTPHYCRGLRVTDETSLEQAQQFAGTVRSRFEAALCGSVSGFARAPSVPLVSGNFLTARPIGVIDGTDMEYAGVIRKTDTAALRFQLDAGNIVWLPPLGHSYSGKTFYLDMLQTAASAAVSLQAEKLVYLTLSDGISRPDGTLAETLSAQEAQSLAEHAGGETRRLISSAVAALEGGVHRVQILNGAADGSLLQELFTRNGIGTSIAKEAFVSIRQAHSGDIPHIAALIRPLEEQGILLHRSREYLENHISEFSILEHDGNLYGCAALKTFAEADCGEIACLAVSPQAQDGGYGERLLAHIIDKARGIGISRLFALSTNTGEWFAERGFQTASEDELPETRRKDYRSNGRNSHILVRRLHR”, the “soluble on expression in E. coli” value is “not soluble”.

“MGSDKIHHHHHHMYSSEKMQWFAMRATYRRGMQIKGLLDQKGINSFIPMRYEIHLKNGHRRRELVPVIRDIVFVHTTQSELQRIKYGIPYFQYMMDIRNGEKIIVPDEQMRRFIAVAGTYDEQIIFFSPDEVNLRKGTKVRITGGQFEGYEGVFVKVKGSRDRRVVISLQGILALAMATLSPDLIEVIEEPKKRNHD”: the “soluble on expression in E. coli” value is reported as “not soluble”.

For “MLRYLLLSMYLFYIKKRRCHHFFIIVNIILSVSMQNDNLPFKITACVYKIV”, the “soluble on expression in E. coli” value is on record as “not soluble”.

Consider “MKSITQLENKKVLVLGLAKSGEAAARLLAKLGAIVTVNDGKAFEENPSAQSLLEEGIKVVCGGHPLELLDENFELMVKNPGIRYDNPMVARALEKEIPVWTEVELAYLVSEAPIIGITGSNGKTTTTTMIADVLNHGGKSGVLSGNIGFPASEVAQSVTNQDTLVMELSSFQLMGIESFHPHIAVITNLMPTHIDYHGSFEEYVAAKWNIQNEMTSDDFIILNFNQDLAKELATQTNAQVVPFSTVEKVDGAYLENGGLYFKGELLMHADELGVPGSHNVENALATIAVAKLSGVSNQAIKETLSSFGGVKHRLQFVDTIDDVKFYNDSKSTNILATQKALSGFDNSKVILIAGGLDRGNEFDELIPDITGLKKMVILGESAPRVKRAADKAGVTYLDAKDVADATRIAFEQASAGDVVLLSPANASWDMYKNFEVRGDEFITTVERLKG”, for which the “soluble on expression in E. coli” value is given as “not soluble”.

For the sequence “MRVLALSAVFLVASIIGMPAVAKEWQENKSWNAHFTEHKSQGVVVLWNENKQQGFTNNLKRANQAFLPASTFKIPNSLIALDLGVVKDEHQVFKWDGQTRDIATWNRDHNLITAMKYSVVPVYQEFARQIGEARMSKMLHAFDYGNEDISGNVDSFWLDGGIRISATEQISFLRKLYHNKLHVSERSQRIVKQAMLTEANGDYIIRAKTGYSTRIEPKIGWWVGWVELDDNVWFFAMNMDMPTSDGLGLRQAITKEVLKQEKIIP”, the “soluble on expression in E. coli” value was “soluble”.

As for “MFILSKIADLVRIPPDQFHRDTISAITHQLNNKFANKIIPNVGLCITIYDLLTVEEGQLKPGDGSSYINVTFRAVVFKPFLGEIVTGWISKCTAEGIKVSLLGIFDDIFIPQNMLFEGCYYTPEESAWIWPMDEETKLYFDVNEKIRFRIEREVFVDVKPKSPKERELEERAQLENEIEGKNEETPQNEKPPAYALLGSCQTDGMGLVSWWEHHHHHH”, the “soluble on expression in E. coli” value is listed as “soluble”.

As for “MPGSDAGPRRRGVHEQRRNRMSNEAKCPFHQAAQNGTSNRDWWPNQLDLSILHRHSSLSDPMGKDFNYAQAFEKLDLAAVKRDLHALMTTSQDWWPADFGHYGGLFIRMAWHSAGTYRTADGRGGAGEGQQRFAPLNSWPDNANLDKARRLLWPIKQKYGRAISWADLLILTGNVALESMGFKTFGFAGGRADTWEPEDVYWGSEKIWLELSGGPNSRYSGDRQLENPLAAVQMGLIYVNPEGPDGNPDPVAAARDIRDTFARMAMNDEETVALIAGGHTFGKTHGAGPASNVGAEPEAAGIEAQGLGWKSAYRTGKGADAITTGLEVTWTTTPTQWSHNFFENLFGYEWELTKSPAGAHQWVAKGADAVIPDAFDPSKKHRPTMLTTDLSLRFDPAYEKISRRFHENPEQFADAFARAWFKLTHRDMGPRARYLGPEVPAEVLLWQDPIPAVDHPLIDAADAAELKAKVLASGLTVSQLVSTAWAAASTFRGSDKRGGANGARIRLAPQKDWEANQPEQLAAVLETLEAIRTAFNGAQRGGKQVSLADLIVLAGCAGVEQAAKNAGHAVTVPFAPGRADASQEQTDVESMAVLEPVADGFRNYLKGKYRVPAEVLLVDKAQLLTLSAPEMTVLLGGLRVLGANVGQSRHGVFTAREQALTNDFFVNLLDMGTEWKPTAADADVFEGRDRATGELKWTGTRVDLVFGSHSQLRALAEVYGSADAQEKFVRDFVAVWNKVMNLDRFDLA”, the “soluble on expression in E. coli” value is listed as “soluble”.

On to “MAHHHHHHMGRVRHGATICSAVSDATAGKQKSACVTDVEEIPTLSFLSSKSILSETVDRTIEVCDALLNEIPKAKSIKEKHDLIDSTSNVLCLLLDPCEFVRQVHPDAEYKQHASYAFQKGYEYMSKVNSRRDLYDVVLQLDSTEGHKELSSEEIKNVAQLRRDMESNGIHLPDKLREKVTEMNIEKEELAMRFLTEQGSKNPFATLRYLLQCRYELSQLLGFESFAEQQLRGTMLENQQRVWHFLCGIAHKYRREAEKEMDIIRSNVGEVRNRQNITDDVRARVAHSLRRDAEPETAAEYFSVANCIRGIQCLCLEVFGVRLEEVQFDKDEIFNNDAKKYHVYDENKAFLGVIVLDLYASEMKYCQAGHLTLQLGCIPHQEALAKVGLKLPKRQYPVVVLTCNVGACSPVQRLPNGRFDDESTLMHPNEVTTVFHEFGHAMHTIFGQTKVQNLAGTRASIDFVETFSQLFEQFLTSHEFLQLWAHRISTREPISFDMVMKRNAAADMFKHLDMMDQVVLSAVDQTLHGPQPYTVYFPRGDQGNLGKRTLGDIGDYGRGTYNLAKVLIDICTPLSIVTPTETGVLGTLSFEHLSGYPAGYYGYLYSLSIARRIWAKKFMKDPLNRDAGRELVQKVMRHGAACNPVDVIENYLEDKLDEIDIWV”, for which the “soluble on expression in E. coli” value is listed as “not soluble”.

Consider “SFHYQALPMRVSFEVGAVTKIGEELDRLGLSRALVLCTPEQKHLADLVMDHLGDRGAGIFDQARMHVPVETADRARDRARKLGADSCVVIGGGSSIGLGKAIALEHGLPIIAIPTTYAGSEMTPIWGLTRDGRKQTGRDAKVLPQSVIYDPQLTAT”, for which the “soluble on expression in E. coli” value is on record as “not soluble”.

“MGSDKIHHHHHHMKGQLFVICGPSGAGKTSIIKEVLKRLDNVVFSVSCTTRPKRPHEEDGKDYFFITEEEFLKRVERGEFLEWARVHGHLYGTLRSFVESHINEGKDVVLDIDVQGALSVKKKYSNTVFIYVAPPSYADLRERILKRGTEKEADVLVRLENAKWELMFMDEFDYIVVNENLEDAVEMVVSIVRSERAKVTRNQDKIERFKMEVKGWKKL”: the “soluble on expression in E. coli” value was “not soluble”.

On to “MSNKFHCDVCSADCTNRVRVSCAICPEYDLCVPCFSQGSYTGKHRPYHDYRIIETNSYPILCPDWGADEELQLIKGAQTLGLGNWQDIADHIGSRGKEEVKEHYLKYYLESKYYPIPDITQNIHVPQDEFLEQRRHRIESFRERPLEPPRKPMASVPSCHEVQGFMPGRLEFETEFENEAEGPVKDMVFEPDDQPLDIELKFAILDIYNSRLTTRAEKKRLLFENHLMDYRKLQAIDKKRSKEAKELYNRIKPFARVMTAQDFEEFSKDILEELHCRARIQQLQEWRSNGLTTLEAGLKYERDKQARISSFEKFGASTAASLSEGNSRYRSNSAHRSNAEYSQNYSENGGRKKNMTISDIQHAPDYALLSNDEQQLCIQLKILPKPYLVLKEVMFRELLKTGGNLSKSACRELLNIDPIKANRIYDFFQSQNWM”, for which the “soluble on expression in E. coli” value is listed as “soluble”.
